# Results: paper PMC6196983, “The Native Monomer of Bacillus Pumilus Ribonuclease Does Not Exist Extracellularly” (BioMed Research International, 2018)
# Target: the molecule itself
# Assay: NMR self-diffusion (hydrodynamic radius); 1.5 mg/ml binase in D2O at pH 3.0 and pH 6.4; BPP-LED stimulated echo, 600.13 MHz; radius from the Stokes-Einstein equation compared with the theoretical monomer size of 1.6 nm
protein,measurement,value
"binase, secreted guanyl-preferring ribonuclease of Bacillus pumilus (enzyme, UniProt P00649 54-162, looked up, binase, secreted ribonuclease of Bacillus pumilus (formerly Bacillus intermedius); also called B. pumilus secreted RNase; Bacillus intermedius RNase; source: isolated from B. pumilus culture fluid, purified) AVINTFDGVADYLIRYKRLPDNYITKSQASALGWVASKGNLAEVAPGKSIGGDVFSNREGRLPSASGRTWREADINYVSGFRNADRLVYSSDWLIYKTTDHYATFTRIR",stoichiometry N,2
